Data published in IntAct's records for PubMed 31515488.

B1: Germ cell-less protein-like 1 (Homo sapiens), Q96IK5 (parent)
chain: MGSLSSRVLRQPRPALAQQAQGARAGGSARRPDTGDDAAGHGFCYCAGSHKRKRSSGSFCYCHPDSETDEDEEEGDEQQRLLNTPRRKKLKSTSKYIYQTLFLNGENSDIKICALGEEWSLHKIYLCQSGYFSSMFSGSWKESSMNIIELEIPDQNIDVEALQVAFGSLYRDDVLIKPSRVVAILAAACLLQLDGLIQQCGETMKETVNVKTVCGYYTSAGTYGLDSVKKKCLEWLLNNLMTHQNVELFKELSINVMKQLIGSSNLFVMQVEMDIYTALKKWMFLQLVPSWNGSLKQLLTETDVWFSKQRKDFEGMAFLETEQGKPFVSVFRHLRLQYIISDLASARIIEQDAVVPSEWLSSVYKQQWFAMLRAEQDSEVGPQEINKEELEGNSMRCGRKLAKDGEYCWRWTGFNFGFDLLVTYTNRYIIFKRNTLNQPCSGSVSLQPRRSIAFRLRLASFDSSGKLICSRTTGYQILTLEKDQEQVVMNLDSRLLIFPLYICCNFLYISPEKKN
B2: Protein FAM9B (Homo sapiens), Q8IZU0 (parent)
chain: MAAWGKKHAGKDPVRDECEERNRFTETREEDVTDEHGEREPFAETDEHTGANTKKPEDTAEDLTAKRKRMKMDKTCSKTKNKSKHALRKKQLKRQKRDYIHSLKLLNVLEEYITDEQKEEEEEEGEEEELIRIFQEQQKKWQQYRSVRRERLKEMKLLRDQFVKALEDFEDLCDRVFSDEDSELDN
partner: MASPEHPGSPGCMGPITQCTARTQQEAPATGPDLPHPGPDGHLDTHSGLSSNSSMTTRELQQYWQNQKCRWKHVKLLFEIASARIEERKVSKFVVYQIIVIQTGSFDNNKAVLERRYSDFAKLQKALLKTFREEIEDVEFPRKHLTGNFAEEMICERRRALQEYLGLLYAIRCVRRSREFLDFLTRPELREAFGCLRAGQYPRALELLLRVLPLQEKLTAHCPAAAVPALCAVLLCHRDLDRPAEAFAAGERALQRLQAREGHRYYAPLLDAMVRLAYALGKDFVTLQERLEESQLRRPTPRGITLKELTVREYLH
B3: Glutathione S-transferase Mu 5 (Homo sapiens), P46439 (parent)
chain: MPMTLGYWDIRGLAHAIRLLLEYTDSSYVEKKYTLGDAPDYDRSQWLNEKFKLGLDFPNLPYLIDGAHKITQSNAILRYIARKHNLCGETEEEKIRVDILENQVMDNHMELVRLCYDPDFEKLKPKYLEELPEKLKLYSEFLGKRPWFAGDKITFVDFLAYDVLDMKRIFEPKCLDAFLNLKDFISRFEGLKKISAYMKSSQFLRGLLFGKSATWNSK
B4: Four and a half LIM domains protein 3 (Homo sapiens), Q13643 (parent)
chain: MSESFDCAKCNESLYGRKYIQTDSGPYCVPCYDNTFANTCAECQQLIGHDSRELFYEDRHFHEGCFRCCRCQRSLADEPFTCQDSELLCNDCYCSAFSSQCSACGETVMPGSRKLEYGGQTWHEHCFLCSGCEQPLGSRSFVPDKGAHYCVPCYENKFAPRCARCSKTLTQGGVTYRDQPWHRECLVCTGCQTPLAGQQFTSRDEDPYCVACFGELFAPKCSSCKRPIVGLGGGKYVSFEDRHWHHNCFSCARCSTSLVGQGFVPDGDQVLCQGCSQAGP
B5: Zinc finger and BTB domain-containing protein 49 (Homo sapiens), Q6ZSB9 (parent)
chain: MDPVATHSCHLLQQLHEQRIQGLLCDCMLVVKGVCFKAHKNVLAAFSQYFRSLFQNSSSQKNDVFHLDVKNVSGIGQILDFMYTSHLDLNQDNIQVMLDTAQCLQVQNVLSLCHTFLKSATVVQPPGMPCNSTLSLQSTLTPDATCVISENYPPHLLQECSADAQQNKTLDESHPHASPSVNRHHSAGEISKQAPDTSDGSCTELPFKQPNYYYKLRNFYSKQYHKHAAGPSQERVVEQPFAFSTSTDLTTVESQPCAVSHSECILESPEHLPSNFLAQPVNDSAPHPESDATCQQPVKQMRLKKAIHLKKLNFLKSQKYAEQVSEPKSDDGLTKRLESASKNTLEKASSQSAEEKESEEVVSCENFNCISETERPEDPAALEDQSQTLQSQRQYACELCGKPFKHPSNLELHKRSHTGEKPFECNICGKHFSQAGNLQTHLRRHSGEKPYICEICGKRFAASGDVQRHIIIHSGEKPHLCDICGRGFSNFSNLKEHKKTHTADKVFTCDECGKSFNMQRKLVKHRIRHTGERPYSCSACGKCFGGSGDLRRHVRTHTGEKPYTCEICNKCFTRSAVLRRHKKMHCKAGDESPDVLEELSQAIETSDLEKSQSSDSFSQDTSVTLMPVSVKLPVHPVENSVAEFDSHSGGSYCKLRSMIQPHGVSDQEKLSLDPGKLAKPQMQQTQPQAYAYSDVDTPAGGEPLQADGMAMIRSSLAALDNHGGDPLGSRASSTTYRNSEGQFFSSMTLWGLAMKTLQNENELDQ

Variants of: B1
Details: with cul3_human CUL3, Q13618

Variant | effect of a mutation on the interaction
E77K | with no effect
K123R | with no effect
I147V | with no effect
K281Q | with no effect
I340V | with no effect
R449Q | with no effect
R457H | with no effect

Variants of: B1
Details: with FAM167A

Variant | effect of a mutation on the interaction
E77K | with no effect
K123R | with no effect
I147V | with no effect
K281Q | disrupting interaction strength
I340V | with no effect
R449Q | with no effect
R457H | disrupting interaction strength

Variants of: B2
Details: with snx20_human SNX20, Q7Z614

Variant | effect of a mutation on the interaction
R23H | with no effect

Variants of: B3
Details: with amol2_human AMOTL2, Q9Y2J4
amol2_human AMOTL2, Q9Y2J4, sequence (Q9Y2J4 whole entry): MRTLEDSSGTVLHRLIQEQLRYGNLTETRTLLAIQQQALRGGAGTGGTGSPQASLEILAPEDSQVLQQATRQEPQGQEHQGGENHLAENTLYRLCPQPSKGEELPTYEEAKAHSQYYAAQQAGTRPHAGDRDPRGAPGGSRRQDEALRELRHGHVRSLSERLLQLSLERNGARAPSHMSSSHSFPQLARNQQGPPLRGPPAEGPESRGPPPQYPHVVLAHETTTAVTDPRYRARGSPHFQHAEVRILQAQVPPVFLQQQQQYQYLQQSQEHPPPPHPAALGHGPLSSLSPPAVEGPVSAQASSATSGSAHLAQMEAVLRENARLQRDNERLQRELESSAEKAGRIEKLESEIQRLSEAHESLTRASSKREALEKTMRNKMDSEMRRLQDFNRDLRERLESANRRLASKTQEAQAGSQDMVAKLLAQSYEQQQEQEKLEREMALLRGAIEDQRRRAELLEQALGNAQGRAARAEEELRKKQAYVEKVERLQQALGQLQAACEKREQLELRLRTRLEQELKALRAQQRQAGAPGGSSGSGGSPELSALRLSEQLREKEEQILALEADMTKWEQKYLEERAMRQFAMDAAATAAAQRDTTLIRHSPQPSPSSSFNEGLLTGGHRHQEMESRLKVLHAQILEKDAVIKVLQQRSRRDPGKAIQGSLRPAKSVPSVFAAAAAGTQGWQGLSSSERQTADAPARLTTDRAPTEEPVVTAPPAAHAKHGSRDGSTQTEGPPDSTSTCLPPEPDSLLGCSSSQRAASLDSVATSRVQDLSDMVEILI

Variant | effect of a mutation on the interaction
L179P | with no effect

Variants of: B4
Details: with gata2_human GATA2, P23769
gata2_human GATA2, P23769, sequence (P23769 whole entry): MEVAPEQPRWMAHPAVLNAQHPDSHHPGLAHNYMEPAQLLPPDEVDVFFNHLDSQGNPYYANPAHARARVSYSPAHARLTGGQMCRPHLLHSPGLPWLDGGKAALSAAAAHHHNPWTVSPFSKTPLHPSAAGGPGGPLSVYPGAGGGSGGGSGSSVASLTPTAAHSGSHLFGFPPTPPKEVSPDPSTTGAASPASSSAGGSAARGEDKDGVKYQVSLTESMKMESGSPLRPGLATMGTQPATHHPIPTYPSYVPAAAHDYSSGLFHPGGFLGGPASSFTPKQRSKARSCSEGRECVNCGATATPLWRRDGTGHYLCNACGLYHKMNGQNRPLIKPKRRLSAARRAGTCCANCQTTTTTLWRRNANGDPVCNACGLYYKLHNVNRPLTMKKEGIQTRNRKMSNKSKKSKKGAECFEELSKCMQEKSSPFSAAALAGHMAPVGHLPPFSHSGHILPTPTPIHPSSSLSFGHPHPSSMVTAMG

Variant | effect of a mutation on the interaction
R226H | with no effect

Variants of: B4
Details: with FAM90A1, Q86YD7
FAM90A1, Q86YD7, sequence (Q86YD7 whole entry): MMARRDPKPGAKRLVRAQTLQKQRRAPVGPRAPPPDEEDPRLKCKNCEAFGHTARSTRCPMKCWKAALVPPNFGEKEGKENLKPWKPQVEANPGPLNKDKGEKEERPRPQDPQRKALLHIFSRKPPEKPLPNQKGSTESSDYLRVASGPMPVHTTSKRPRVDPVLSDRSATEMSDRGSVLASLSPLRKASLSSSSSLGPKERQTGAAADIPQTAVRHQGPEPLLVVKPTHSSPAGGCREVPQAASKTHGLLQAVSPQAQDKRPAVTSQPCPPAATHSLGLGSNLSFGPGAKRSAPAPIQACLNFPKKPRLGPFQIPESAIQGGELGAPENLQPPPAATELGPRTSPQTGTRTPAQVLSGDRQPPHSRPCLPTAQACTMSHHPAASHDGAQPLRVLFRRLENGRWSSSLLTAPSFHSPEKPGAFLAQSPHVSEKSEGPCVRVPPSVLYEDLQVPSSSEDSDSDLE

Variant | effect of a mutation on the interaction
A103T | with no effect

Variants of: B5
Details: with gopc_human GOPC

Variant | effect of a mutation on the interaction
C294R | with no effect
Y320S | with no effect
E346K | with no effect

Variants of: B5
Details: with cep70_human CEP70, Q8NHQ1
cep70_human CEP70, Q8NHQ1, sequence (Q8NHQ1 whole entry): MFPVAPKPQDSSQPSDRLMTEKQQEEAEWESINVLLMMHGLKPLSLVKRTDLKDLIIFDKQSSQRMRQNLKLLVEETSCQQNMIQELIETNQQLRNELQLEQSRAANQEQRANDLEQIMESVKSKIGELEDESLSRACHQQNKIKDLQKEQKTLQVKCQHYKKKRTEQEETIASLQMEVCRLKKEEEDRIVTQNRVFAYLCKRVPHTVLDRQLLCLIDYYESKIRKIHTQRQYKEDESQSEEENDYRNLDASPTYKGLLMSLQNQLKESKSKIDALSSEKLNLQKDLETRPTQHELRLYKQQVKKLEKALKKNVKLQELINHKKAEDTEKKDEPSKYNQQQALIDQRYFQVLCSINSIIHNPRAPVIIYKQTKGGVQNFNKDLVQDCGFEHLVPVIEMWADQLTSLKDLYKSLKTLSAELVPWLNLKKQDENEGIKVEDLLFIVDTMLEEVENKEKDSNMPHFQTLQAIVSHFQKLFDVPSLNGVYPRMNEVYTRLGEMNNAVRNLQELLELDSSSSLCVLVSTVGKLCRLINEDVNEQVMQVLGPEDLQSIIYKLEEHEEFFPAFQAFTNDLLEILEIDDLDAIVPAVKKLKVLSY

Variant | effect of a mutation on the interaction
C294R | with no effect
Y320S | disrupting interaction strength
E346K | with no effect
